In the supplement of paper PMC10126150:
± gives the standard deviation of the averaged measurements.

Tested on: ATP
Assay: switch fluorescence ratio, 500 uM ATP over buffer (Cy3 cluster intensity, sum of 5 cycles each) (fold (ratio)); higher = stronger signal-on switching upon ATP binding; sequences stand for … in TCGTCGGCAGCGTCAGATGTGTATAAGAGACAGTTTTTTTTTTTTTTTTTTTTTTTTT…TC
Details: aptamer strand: ATP DNA aptamer (quencher-CACCTGGGGGAGTATTGCGGAGGAAGG + anchor), 100 nM annealed; ATP concentration: 500 uM
Method in brief: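 The fluorescence ratio divides summed target-cycle Cy3 intensity by summed buffer-cycle Cy3 intensity for each cluster and is averaged per switch-domain sequence. Cy3-labelled switching-strand clusters on a modified Illumina MiSeq flow-cell were annealed to 100 nM quencher-labelled ATP aptamer, then imaged in selection buffer and again after 15 min with 500 uM ATP at 22 °C. Five such cycles were run, with NaOH stripping and re-annealing between them, and clusters outside 100-1000 RFU were excluded.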
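Note: ATP exposure 15 min at 22 °C before imaging.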

First: GGGGGGTCCC
Second: GGGGGGTCT
The switch fluorescence ratio of the first is lower: 0.9957 ± 0.0037 for the first, 1.09 ± 0.051 for the second.

GGGGGGTGAG and GGGGGGTGCA are within error of each other in switch fluorescence ratio: 0.974 ± 0.037 for the first, 1.02 ± 0.018 for the second.

GGGGGGTGGC and GGGGGGTGTT are within error of each other in switch fluorescence ratio: 1.05 ± 0.15 for the first, 1.01 ± 0.019 for the second.

GGGGGGTTGA and GGGGGGTTTC are the same in switch fluorescence ratio: 1.1 ± 0.2 for the first, 1.1 ± 0.2 for the second.

GGGGGGTTTG and GGGGGGTTTT are within error of each other in switch fluorescence ratio: 1 ± 0.037 for the first, 1.01 ± 0.059 for the second.

GGGGGTAAGA and GGGGGTAGTG are within error of each other in switch fluorescence ratio: 0.981 ± 0.028 for the first, 0.9946 ± 0.0063 for the second.

GGGGGTATTA and GGGGGTATTG are within error of each other in switch fluorescence ratio: 0.97014 ± 0.00019 for the first, 0.99 ± 0.041 for the second.

GGGGGTCCCG and GGGGGTCGGT are within error of each other in switch fluorescence ratio: 1 ± 0.012 for the first, 1.01 ± 0.048 for the second.

GGGGGTCTGA and GGGGGTCTGG are within error of each other in switch fluorescence ratio: 1 ± 0.024 for the first, 0.9855 ± 0.0097 for the second.

GGGGGTGAAT and GGGGGTGATG are the same in switch fluorescence ratio: 1 ± 0.037 for the first, 1 ± 0.035 for the second.

First: GGGGGTGGCT
Second: GGGGGTGGGT
The switch fluorescence ratio of the first is higher: 1.027 ± 0.0069 for the first, 1 ± 0.021 for the second.

GGGGGTGGTC and GGGGGTGTCG are within error of each other in switch fluorescence ratio: 1.01 ± 0.04 for the first, 0.994 ± 0.035 for the second.

GGGGGTGTGG and GGGGGTTCAA are within error of each other in switch fluorescence ratio: 0.999 ± 0.035 for the first, 0.983 ± 0.025 for the second.

GGGGGTTGAC and GGGGGTTGGC are within error of each other in switch fluorescence ratio: 1.01 ± 0.027 for the first, 0.966 ± 0.047 for the second.

GGGGGTTGGT and GGGGGTTGTG are within error of each other in switch fluorescence ratio: 0.996 ± 0.026 for the first, 1 ± 0.036 for the second.

GGGGGTTGTT and GGGGTAAAGA are within error of each other in switch fluorescence ratio: 0.997 ± 0.025 for the first, 1.02 ± 0.036 for the second.

GGGGTAAGGC and GGGGTAATAG are within error of each other in switch fluorescence ratio: 0.979 ± 0.019 for the first, 1.12 ± 0.14 for the second.

GGGGTAATAT and GGGGTACATG are within error of each other in switch fluorescence ratio: 1.06 ± 0.053 for the first, 1.022 ± 0.0055 for the second.

GGGGTACGAT and GGGGTACGGC are within error of each other in switch fluorescence ratio: 1.02 ± 0.027 for the first, 1.03 ± 0.041 for the second.

GGGGTACTAG and GGGGTAGACA are within error of each other in switch fluorescence ratio: 0.9981 ± 0.0071 for the first, 1 ± 0.031 for the second.

GGGGTAGAGA and GGGGTAGCAT are within error of each other in switch fluorescence ratio: 0.99 ± 0.015 for the first, 0.986 ± 0.028 for the second.

GGGGTAGCGT and GGGGTAGTCA are within error of each other in switch fluorescence ratio: 0.99 ± 0.03 for the first, 1 ± 0.035 for the second.

GGGGTAGTCG and GGGGTATCAT are within error of each other in switch fluorescence ratio: 0.988 ± 0.012 for the first, 0.983 ± 0.03 for the second.

GGGGTATCTC and GGGGTATGGG are within error of each other in switch fluorescence ratio: 0.986 ± 0.021 for the first, 0.985 ± 0.038 for the second.

GGGGTATGTG and GGGGTCCTAA are within error of each other in switch fluorescence ratio: 0.992 ± 0.039 for the first, 0.986 ± 0.011 for the second.

GGGGTCCTTT and GGGGTCGGG are within error of each other in switch fluorescence ratio: 0.9886 ± 0.0044 for the first, 0.977 ± 0.044 for the second.

GGGGTCTGGG and GGGGTGAGAG are within error of each other in switch fluorescence ratio: 0.966 ± 0.016 for the first, 0.993 ± 0.026 for the second.

GGGGTGATAG and GGGGTGATCA are within error of each other in switch fluorescence ratio: 1 ± 0.042 for the first, 1.05 ± 0.064 for the second.

GGGGTGATCC and GGGGTGCCAA are within error of each other in switch fluorescence ratio: 1.01 ± 0.012 for the first, 0.975 ± 0.067 for the second.

Compared with GGGGTGGAGG, GGGGTGGAGT is lower in switch fluorescence ratio: 1.02 ± 0.017 for the first, 0.971 ± 0.019 for the second.

GGGGTGGGAG and GGGGTGGGGA are within error of each other in switch fluorescence ratio: 1.01 ± 0.041 for the first, 1 ± 0.036 for the second.

GGGGTGGGGC and GGGGTGGTAA are within error of each other in switch fluorescence ratio: 1 ± 0.042 for the first, 1.01 ± 0.02 for the second.

GGGGTGTAAT and GGGGTGTAGC are within error of each other in switch fluorescence ratio: 1.01 ± 0.021 for the first, 0.992 ± 0.042 for the second.

Going from GGGGTGTAGG to GGGGTGTGAC, the switch fluorescence ratio rises from 0.993 ± 0.024 to 1.022 ± 0.0026.

GGGGTGTGCT and GGGGTTAAAT are within error of each other in switch fluorescence ratio: 1.1 ± 0.16 for the first, 1 ± 0.047 for the second.

GGGGTTACGG and GGGGTTAGGG are within error of each other in switch fluorescence ratio: 0.996 ± 0.062 for the first, 1 ± 0.032 for the second.

GGGGTTATGG and GGGGTTCCGC are within error of each other in switch fluorescence ratio: 0.984 ± 0.041 for the first, 1.05 ± 0.026 for the second.

First: GGGGTTCGCG
Second: GGGGTTCGGC
The switch fluorescence ratio of the first is lower: 1.004 ± 0.0048 for the first, 1.058 ± 0.0023 for the second.

Going from GGGGTTGAAG to GGGGTTGACA, the switch fluorescence ratio rises from 0.979 ± 0.01 to 1.04 ± 0.051.

GGGGTTGAGG and GGGGTTGCGA are within error of each other in switch fluorescence ratio: 0.993 ± 0.023 for the first, 0.996 ± 0.018 for the second.

GGGGTTGGGG and GGGGTTGTGG are within error of each other in switch fluorescence ratio: 0.994 ± 0.031 for the first, 0.988 ± 0.032 for the second.

GGGGTTTAAT and GGGGTTTCCG are within error of each other in switch fluorescence ratio: 1 ± 0.034 for the first, 0.9992 ± 0.0093 for the second.

GGGGTTTGGT and GGGGTTTTAT are within error of each other in switch fluorescence ratio: 0.984 ± 0.038 for the first, 1.01 ± 0.018 for the second.

GGGGTTTTGA and GGGGTTTTGG are within error of each other in switch fluorescence ratio: 0.97725 ± 0.00091 for the first, 0.995 ± 0.025 for the second.

GGGTAAAAAG and GGGTAACGAG are within error of each other in switch fluorescence ratio: 0.991 ± 0.018 for the first, 1.006 ± 0.0078 for the second.

GGGTAAGAGA and GGGTAAGGCA are within error of each other in switch fluorescence ratio: 1.04 ± 0.079 for the first, 0.986 ± 0.071 for the second.

GGGTAATGTA and GGGTAATTTT are the same in switch fluorescence ratio: 1.02 ± 0.014 for the first, 1.02 ± 0.047 for the second.

GGGTACAGGT and GGGTACGCTT are within error of each other in switch fluorescence ratio: 1.18 ± 0.2 for the first, 1 ± 0.025 for the second.

GGGTAGAATG and GGGTAGCCTG are within error of each other in switch fluorescence ratio: 1.02 ± 0.03 for the first, 0.982 ± 0.02 for the second.

GGGTAGCTCG and GGGTAGGAAA are within error of each other in switch fluorescence ratio: 0.987 ± 0.031 for the first, 1.011 ± 0.007 for the second.
